Tested on: MS2 coat protein
Experiment: apparent KD of MS2 coat protein; designed switch direction (-1 OFF switch, 1 ON switch): 1; higher = weaker reporter binding
Summary of the method: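 Apparent KD, taken as the median over clusters for each design, was obtained by curve-fitting normalised cluster fluorescence. Designed RNA switches had been transcribed on Illumina chips by stalled E. coli RNA polymerase and titrated with SNAP-549-labelled MS2 coat protein, doubling from 0.7 or 1.5 nM to 3 µM.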

[1] = Eterna round: R95, input ligand: FMN 200 uM
[2] = Eterna round: R95, input ligand: microRNA oligo, concentration not stated
[3] = Eterna round: R95, input ligand: none
[4] = input ligand: microRNA oligo, concentration not stated

Sequence | apparent KD of MS2 coat protein [1] [µM] | apparent KD of MS2 coat protein [2] [µM] | apparent KD of MS2 coat protein [3] [µM] | apparent KD of MS2 coat protein (input ligand: FMN 200 uM) [µM] | apparent KD of MS2 coat protein [4] [µM] | apparent KD of MS2 coat protein (input ligand: none) [µM]
CUACGAGCGCCACAGGAUAUACUGAGACUCACAUGAGGAUCACCCAUGUCCAAUUCUCCCAAAUAGUAGAAGGGUGACGCGCUCA [Soordire] (puzzle: Same State 2) | 0.0511 | 0.565 | 0.546 |  |  | 
AUAAGUUCGAUGCUCGUCUCUCCGUACAAACAUGAGGAUCACCCAUGUGAUCGGGCAGUAGCCCGAUCAGUAUGGCC [Soriin] (puzzle: Sensor for hsa-mir-208a) | 0.0393 | 0.0205 | 0.0478 |  |  | 
UUGCGGGUUUGAGGAUAUUGAGUACAUAUGUUUAACAUGAGGAUCACCCAUGUGGGUUGCGGUAUCGAGAAGGUAACUUACUAC [salish99_SSNG2_r04_806] (Eterna round: R96, puzzle: Same State NG 2) |  |  |  | 0.179 | 0.0689 | 0.11
CUCGAGAGGUUAUAGGAUAUCCAUUUACGUACAUGAGGAUCACCCAUGUCUGACCGCUGGGUCAGGGAGAAGGGUAAGAUCGAGA [Tegeoror] (puzzle: Same State 2) | 0.275 | 0.42 | 0.6 |  |  | 
UCGGGCUCUGCUCGUCUUGAGUUGCUCCCACAUGAGGAUCACCCAUGUAGUGUGCCGAUCGGCGCGCGGGUGACUUU [Atresoso] (puzzle: Sensor for hsa-mir-208a) | 0.456 | 0.151 | 0.451 |  |  | 
GUGGUCAGACAUGAGGAUCACCCAUGUGGAAUAAAUAAGGAGAAGGAUAUGUAAUAUAGGAUAUAACAGAAGGUUUGGUUGGUG (Eterna round: R96, puzzle: Same State NG 3) |  |  |  | 0.105 | 0.0697 | 0.0965
UAGAAACAUGAGGAUCACCCAUGUGUCAAAGACAUAGGAUAUCACGGCUAAAAUCAGCCGUGAGAAGGGUGGUAAA [Aisbira] (puzzle: Same State 1) | 0.0571 | 0.0611 | 0.0562 |  |  | 
AACAUUCUAUCUCAGGAUAUCAUGUCAAAGACAUGAGGAUCACCCAUGUACCAGGAAACUGGUUAUGAGAAGGGAGAUAGAAUGA [Mat - Same State 2 - Mod - D45] (Eterna round: R96, puzzle: Same State 2) |  |  |  | 0.267 | 0.517 | 1.08
UACAAUCUAUCUGAGGAUAUCAUGAUUAUAACAUGAGGAUCACCCAUGUGCAGGAAAACUGCAUAUGAGAAGGCAGAUAGAUUGU [salish99_ss2_r3_069] (Eterna round: R96, puzzle: Same State 2) |  |  |  | 0.228 | 0.116 | 0.232
GAGGGACAGACCAACAUGAGGAUCACCCAUGUCCUCGCAGGUCAGGAUAUCCGGAGGUAGACGAAGGAGAAGGGACGGUGAACC [AK SSNG3-V2-38] (Eterna round: R96, puzzle: Same State NG 3) |  |  |  | 0.893 | 0.251 | 0.631
AAUCAACAUGAGGAUCACCCAUGUCACACAAAGUGAGGAUAUUGGAAAUAAAUAAUAAAACGAGAAGGCGCUGCGG [OBB] (puzzle: Same State 1) | 0.0266 | 0.0445 | 0.06 |  |  | 
AGUCCAGCCUGAGCUGGACAUUAGCAUGUACAUGAGGAUCACCCAUGUCAUGUACAAGCUAUUUGCUCGUCUUAAAA [Mat - Sensor - JL mod - D76] (Eterna round: R96, puzzle: Sensor for hsa-mir-208a) |  |  |  | 0.592 | 0.0157 | 0.455
AAAAGAAACACAGGAUAUACCGCACUUAACGCGGUAGAAGGGUGGGACAUGAGGAUCACCCAUGUGGCCUGAGCACCAGGCCGC [Orgele] (Eterna round: R96, puzzle: Same State NG 1) |  |  |  | 0.047 | 0.00538 | 0.0218
GGAGCCGGUACUGAGGAUAUUCAUAUUAAAACAUGAGGAUCACCCAUGUAGGCCGGAAGGCCUUGGGAGAAGGCAGACCAGCUCG [Atgexeedri - 7] (puzzle: Same State 2) | 0.0231 | 0.255 | 0.441 |  |  | 
UAUCAUUACACGAAGGAUAUCGAUAAUUGAACAUGAGGAUCACCCAUGUGAUAUAUUUUACAGUUCGAGAAGGUCGAGGGUGAAG [JR_SS002_Sub705] (Eterna round: R96, puzzle: Same State 2) |  |  |  |  | 0.0285 | 
UGUUGUAUUACAGGAUAUCUAUUAGUUUUAUAUAGAGAAGGGUAUUCACAUGAGGAUCACCCAUGUAUAUACGAGGAAGUUGUG [JMF's solution 100] (Eterna round: R96, puzzle: Same State NG 1) |  |  |  |  | 0.0368 | 

Sequence | apparent KD of MS2 coat protein [1] [µM] | apparent KD of MS2 coat protein [2] [µM] | apparent KD of MS2 coat protein [3] [µM] | apparent KD of MS2 coat protein (input ligand: FMN 200 uM) [µM] | apparent KD of MS2 coat protein [4] [µM] | apparent KD of MS2 coat protein (input ligand: none) [µM]
UGAAUAGUGAUAGGAUAUACAUGAGGAAUCCUCGUAGAAGGAUCAUAACAUGAGGAUCACCCAUGUAGCCGUCAGAAGACGGCA [Mat - Same State NG 1 - JL mod - D57] (Eterna round: R96, puzzle: Same State NG 1) |  |  |  | 0.0946 | 0.284 | 0.178
AGCCGAGACUGAGGAUAUAGAAAUCUACAUGAGGAUCACCCAUGUAGCAACACGUGGUAGUGAUUCUAGAAGGCGGCUCGGCGC [Omei SS(NG)2 Cv5] (Eterna round: R96, puzzle: Same State NG 2) |  |  |  | 0.0134 | 0.0411 | 0.0406
UCUUGGUUUUUGCUCGUUUUUUGUGUUGAACAUGAGGAUCACCCAUGUAUUGUACGGUCCGAUUUGAUAAUGGUCCA [JMF 41] (puzzle: Sensor for hsa-mir-208a) | 0.0363 | 0.0192 | 0.0374 |  |  | 
GUUACAUGAGGAUCACCCAUGUAUGUGUGGGAGUAAGUGUCUUAGGAUAUCUAUCAUUUUAUUUAAGAGAAGGAAGAUUGUUGU [JMF's solution 93] (Eterna round: R96, puzzle: Same State NG 3) |  |  |  | 0.121 | 0.0774 | 0.111
GUGGUCAGACAUGAGGAUCACCCAUGUGGAAUAAAUAACGAACAGGAUAUUCAAUAUAGGAUAUAGAAGAAGGGUUGAUUGGUG (Eterna round: R96, puzzle: Same State NG 3) |  |  |  | 0.204 | 0.171 | 0.187
UGCAGCUACGUAGGAUAUCCGAAAGGAAGUGUAGGAGAAGGACGAGAGCCGCCUUACGUACAUGAGGAUCACCCAUGUAGUAGG [PowerStrip SSNG 1.22] (Eterna round: R96, puzzle: Same State NG 1) |  |  |  | 0.0137 | 0.0218 | 0.0259
GCUACCAAAGAAGCCAACAUGAGGAUCACCCAUGUAUGUUGGCAGGAUAUCGUUUGCAAAGCGAACGAGAAGGGCUAAGGUAGC [Mat - Same State NG 3 - JL Mod - D89] (Eterna round: R96, puzzle: Same State NG 3) |  |  |  | 0.197 | 0.116 | 0.231
GGAGCCGACACCGAGGAUAUUCAUAUUAAAACAUGAGGAUCACCCAUGUAGGCCAGAAGGCCUUGGGAGAAGGCGGAUCGGCUCG [Xeonanis - 8] (puzzle: Same State 2) | 0.0212 | 0.24 | 0.301 |  |  | 
UGACACACGGCAGGAUAUCGAUUGCAAAGCAAUCGAGAAGGGCCUCAUGUCGUGGAAACGUGACAUGAGGAUCACCCAUGUCGC [Omei SS(NG)1 Cv13] (Eterna round: R96, puzzle: Same State NG 1) |  |  |  | 0.0531 | 0.0116 | 0.024
CUAUCUACAGGUUGCAGUGCUCGUCUUAUACAUGAGGAUCACCCAUGUUAUAGCCCGGUGCUUGCGCUGGGCUGACC [JL ViennaUCT Tearor mod 1] (puzzle: Sensor for hsa-mir-208a) | 0.0337 | 0.0156 | 0.0336 |  |  | 
AAUAAACAUGAGGAUCACCCAUGUGCAACGCGUCAAGGAUAUGCAUCAAACACGCCUUGAGCAGAAGGUGACCGGA [Ladiis] (puzzle: Same State 1) | 0.245 | 0.0417 | 0.0167 |  |  | 
AUACAUGAGGAUCACCCAUGUAAUUAAUUAACUAGUAAGAUCUAGGAUAUCAGCUCGAUUAGAGCUGAGAAGGAGAUCACAUGU [SSNG3/21-A2] (Eterna round: R96, puzzle: Same State NG 3) |  |  |  |  | 0.0293 | 
GUGGUCUGACAUGAGGAUCACCCAUGUGGAAUAAAUACGGGUUAGGAUAUCUUGAGGAUCACCCAAGAGAAGGGAUGGACCGUU (Eterna round: R96, puzzle: Same State NG 3) |  |  |  | 0.0363 | 0.0309 | 0.0475
AGAUCAUGACGAGGAUAUGGUACAUGAGGAUCACCCAUGUAUGUAUCAUAACGCGAAUGACGAAUCCAGAAGGCGUCGUGGUCA [JL SSNG2 1.12] (Eterna round: R96, puzzle: Same State NG 2) |  |  |  | 0.00994 | 0.0147 | 0.0227
CUGUACCAUGGAGGAUAUGGGCUGAGACCAGGACAACCCUGGUCAACAUGAGGAUCACCCAUGUCCCAGAAGGCCACGGUGCUA [Anraores] (Eterna round: R96, puzzle: Same State NG 2) |  |  |  | 0.016 | 0.103 | 0.132
AAUUAAGAUCAAGGAUAUCACGUCGAAUAGACGUGAGAAGGUGAUCCAUACAUGAGGAUCACCCAUGUAUAACAUGAAUUAAUU [SSNG1/8-B1] (Eterna round: R96, puzzle: Same State NG 1) |  |  |  |  | 0.607 | 

Reference: the supplement of paper PMC9170038
